The target of data set [1] is T1, BfiI-C (C-terminal DNA-binding domain) (UniProt Q9F4C9 193-358).
T1 sequence: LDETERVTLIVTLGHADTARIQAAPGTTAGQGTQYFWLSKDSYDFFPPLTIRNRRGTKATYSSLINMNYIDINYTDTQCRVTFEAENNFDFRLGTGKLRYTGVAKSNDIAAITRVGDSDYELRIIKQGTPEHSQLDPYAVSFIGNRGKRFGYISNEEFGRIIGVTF
Briefly: X-ray crystallography.

The target of the next data set is T2, BfiI W229A (UniProt Q9F4C9 1-358, W229A).
T2 sequence: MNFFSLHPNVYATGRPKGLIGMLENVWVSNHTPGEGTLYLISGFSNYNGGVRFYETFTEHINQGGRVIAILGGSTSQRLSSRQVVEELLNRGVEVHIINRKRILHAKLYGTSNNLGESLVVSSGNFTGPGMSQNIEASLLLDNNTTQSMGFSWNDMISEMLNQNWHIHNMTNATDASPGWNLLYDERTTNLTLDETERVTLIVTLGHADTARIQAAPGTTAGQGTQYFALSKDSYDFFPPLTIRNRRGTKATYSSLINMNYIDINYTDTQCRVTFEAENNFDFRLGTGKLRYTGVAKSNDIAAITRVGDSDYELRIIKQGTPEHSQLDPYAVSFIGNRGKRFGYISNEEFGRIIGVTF
Kind of data set: EMSA.

The next data set addresses T3, BfiI R291A (UniProt Q9F4C9 1-358, R291A).
T3 sequence: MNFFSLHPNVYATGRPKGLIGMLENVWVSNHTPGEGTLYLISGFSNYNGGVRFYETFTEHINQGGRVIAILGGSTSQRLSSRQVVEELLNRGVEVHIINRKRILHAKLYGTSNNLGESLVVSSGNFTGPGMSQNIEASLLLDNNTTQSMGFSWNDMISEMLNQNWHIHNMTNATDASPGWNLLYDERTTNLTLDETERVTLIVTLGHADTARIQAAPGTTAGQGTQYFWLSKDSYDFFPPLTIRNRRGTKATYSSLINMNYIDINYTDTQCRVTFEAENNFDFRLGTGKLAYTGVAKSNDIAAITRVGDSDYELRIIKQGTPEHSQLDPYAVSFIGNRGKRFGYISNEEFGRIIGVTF
Kind of data set: EMSA.

Another data set concerns the target T4, BfiI Y227A (UniProt Q9F4C9 1-358, Y227A).
T4 sequence: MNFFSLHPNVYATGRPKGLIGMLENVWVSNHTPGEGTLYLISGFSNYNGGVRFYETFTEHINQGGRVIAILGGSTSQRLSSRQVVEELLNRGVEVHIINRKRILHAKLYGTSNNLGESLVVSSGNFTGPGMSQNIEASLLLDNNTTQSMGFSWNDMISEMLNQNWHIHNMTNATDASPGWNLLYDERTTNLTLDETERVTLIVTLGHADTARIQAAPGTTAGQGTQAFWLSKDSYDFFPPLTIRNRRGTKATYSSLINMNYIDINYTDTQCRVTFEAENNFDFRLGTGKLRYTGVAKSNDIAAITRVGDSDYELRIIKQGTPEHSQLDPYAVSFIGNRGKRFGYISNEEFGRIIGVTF
Kind of data set: EMSA.

A further data set addresses T5, BfiI E276A (UniProt Q9F4C9 1-358, E276A).
T5 sequence: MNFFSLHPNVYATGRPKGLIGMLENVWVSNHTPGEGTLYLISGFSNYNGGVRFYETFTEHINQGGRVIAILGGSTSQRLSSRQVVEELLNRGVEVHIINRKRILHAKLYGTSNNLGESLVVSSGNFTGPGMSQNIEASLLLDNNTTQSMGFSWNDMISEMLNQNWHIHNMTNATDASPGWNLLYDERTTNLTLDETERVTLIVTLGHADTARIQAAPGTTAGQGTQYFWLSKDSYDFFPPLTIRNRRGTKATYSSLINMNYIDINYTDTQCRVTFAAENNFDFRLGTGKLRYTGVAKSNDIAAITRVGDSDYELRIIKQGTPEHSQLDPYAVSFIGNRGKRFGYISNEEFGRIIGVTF
Kind of data set: EMSA. A general note: In EMSA bound probe runs differently from free probe, usually more slowly.

The next data set addresses T6, BfiI R212A (UniProt Q9F4C9 1-358, R212A).
T6 sequence: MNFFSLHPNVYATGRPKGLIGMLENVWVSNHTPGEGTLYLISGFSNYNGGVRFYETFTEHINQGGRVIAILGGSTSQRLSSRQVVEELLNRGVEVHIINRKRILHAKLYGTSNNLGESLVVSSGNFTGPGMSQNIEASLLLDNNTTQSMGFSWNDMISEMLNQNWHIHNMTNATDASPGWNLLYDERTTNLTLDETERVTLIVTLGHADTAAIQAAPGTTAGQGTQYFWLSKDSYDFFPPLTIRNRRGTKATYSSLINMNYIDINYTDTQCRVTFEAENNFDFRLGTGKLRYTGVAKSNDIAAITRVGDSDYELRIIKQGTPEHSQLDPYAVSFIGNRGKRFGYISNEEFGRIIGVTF
Briefly: EMSA.

The target of another data set is T7, BfiI T225A (UniProt Q9F4C9 1-358, T225A).
T7 sequence: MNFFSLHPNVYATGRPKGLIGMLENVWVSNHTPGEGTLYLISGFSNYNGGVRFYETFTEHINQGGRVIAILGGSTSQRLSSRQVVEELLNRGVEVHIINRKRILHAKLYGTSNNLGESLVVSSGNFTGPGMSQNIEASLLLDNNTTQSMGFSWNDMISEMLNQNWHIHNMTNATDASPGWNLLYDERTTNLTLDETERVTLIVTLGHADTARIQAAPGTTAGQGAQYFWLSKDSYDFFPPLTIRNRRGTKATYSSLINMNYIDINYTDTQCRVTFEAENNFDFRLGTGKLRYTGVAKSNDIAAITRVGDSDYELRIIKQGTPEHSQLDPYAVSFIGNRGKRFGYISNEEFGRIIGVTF
Briefly: EMSA.

In the next data set the target is T8, BfiI R272A (UniProt Q9F4C9 1-358, R272A).
T8 sequence: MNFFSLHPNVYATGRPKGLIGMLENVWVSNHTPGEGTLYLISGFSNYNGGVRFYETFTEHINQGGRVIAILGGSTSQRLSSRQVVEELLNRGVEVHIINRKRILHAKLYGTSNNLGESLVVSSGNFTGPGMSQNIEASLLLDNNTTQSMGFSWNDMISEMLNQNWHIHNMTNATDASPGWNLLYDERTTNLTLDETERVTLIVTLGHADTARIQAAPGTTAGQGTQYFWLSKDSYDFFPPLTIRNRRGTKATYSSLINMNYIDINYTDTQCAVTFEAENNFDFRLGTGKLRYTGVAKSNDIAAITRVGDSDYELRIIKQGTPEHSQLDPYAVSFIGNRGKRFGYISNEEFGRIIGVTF
Briefly: EMSA.

A further data set addresses T9, BfiI Q223A (UniProt Q9F4C9 1-358, Q223A).
T9 sequence: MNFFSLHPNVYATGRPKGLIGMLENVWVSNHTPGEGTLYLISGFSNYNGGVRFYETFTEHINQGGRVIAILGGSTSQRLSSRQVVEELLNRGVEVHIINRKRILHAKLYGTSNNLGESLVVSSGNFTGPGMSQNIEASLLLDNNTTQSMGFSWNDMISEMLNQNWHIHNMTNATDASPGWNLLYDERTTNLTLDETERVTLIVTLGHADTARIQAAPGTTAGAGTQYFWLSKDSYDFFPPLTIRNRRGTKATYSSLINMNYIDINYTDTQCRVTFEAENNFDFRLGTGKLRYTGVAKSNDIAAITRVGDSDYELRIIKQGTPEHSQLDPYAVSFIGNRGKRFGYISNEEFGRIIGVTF
Kind of data set: EMSA.

The target of the next data set is T10, BfiI N245A (UniProt Q9F4C9 1-358, N245A).
T10 sequence: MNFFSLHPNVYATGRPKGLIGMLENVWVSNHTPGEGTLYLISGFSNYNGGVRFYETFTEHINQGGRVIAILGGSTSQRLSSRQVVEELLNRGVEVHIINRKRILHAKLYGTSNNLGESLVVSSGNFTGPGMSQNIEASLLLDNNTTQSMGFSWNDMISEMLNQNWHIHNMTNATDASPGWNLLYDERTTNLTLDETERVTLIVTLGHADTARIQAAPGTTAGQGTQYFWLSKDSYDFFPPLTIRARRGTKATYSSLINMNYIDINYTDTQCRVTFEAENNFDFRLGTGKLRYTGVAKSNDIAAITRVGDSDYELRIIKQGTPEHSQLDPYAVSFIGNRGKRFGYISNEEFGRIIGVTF
Briefly: EMSA.

The next data set deals with T11, BfiI K250A (UniProt Q9F4C9 1-358, K250A).
T11 sequence: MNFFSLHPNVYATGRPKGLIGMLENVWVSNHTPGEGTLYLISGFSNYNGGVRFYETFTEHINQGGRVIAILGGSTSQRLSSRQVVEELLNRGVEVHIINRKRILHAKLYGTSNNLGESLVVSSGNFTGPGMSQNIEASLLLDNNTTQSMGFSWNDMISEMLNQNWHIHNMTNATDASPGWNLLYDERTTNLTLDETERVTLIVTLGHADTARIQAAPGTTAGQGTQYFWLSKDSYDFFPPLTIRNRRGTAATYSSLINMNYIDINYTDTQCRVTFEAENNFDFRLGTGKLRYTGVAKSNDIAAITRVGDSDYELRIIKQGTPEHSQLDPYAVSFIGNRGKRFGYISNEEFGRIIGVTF
Briefly: EMSA.

The target of the next data set is T12, BfiI Q226A (UniProt Q9F4C9 1-358, Q226A).
T12 sequence: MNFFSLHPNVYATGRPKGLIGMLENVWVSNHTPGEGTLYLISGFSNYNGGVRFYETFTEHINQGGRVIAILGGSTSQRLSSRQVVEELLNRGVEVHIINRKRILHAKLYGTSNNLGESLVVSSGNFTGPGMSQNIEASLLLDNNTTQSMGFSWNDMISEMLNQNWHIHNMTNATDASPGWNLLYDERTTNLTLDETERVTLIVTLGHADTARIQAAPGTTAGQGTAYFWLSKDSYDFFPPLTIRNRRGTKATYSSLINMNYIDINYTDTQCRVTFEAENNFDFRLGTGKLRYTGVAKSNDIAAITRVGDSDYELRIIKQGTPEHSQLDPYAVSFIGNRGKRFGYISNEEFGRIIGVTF
Briefly: EMSA.

B1: 12/12 (dsDNA)
DNA 1: AGCACTGGGTCG
DNA 2: CGACCCAGTGCT
Consider B1, for which, in data set [1], the binding result is “binds”.

B2: 16SP (dsDNA)
DNA 1: AGCGTAGCACTGGGCT
DNA 2: AGCCCAGTGCTACGCT
As for B2, the binding signal with BfiI W229A is 1 % of WT KA; in the data set with BfiI R291A, 2 % of WT KA; with BfiI Y227A, 5 % of WT KA; with BfiI E276A, 10 % of WT KA; with BfiI R212A it was 2 % of WT KA; in the data set with BfiI T225A, 10 % of WT KA. In addition, the binding signal in the data set with BfiI R272A is 1 % of WT KA; with BfiI Q223A it was 100 % of WT KA; in the data set with BfiI N245A it was 100 % of WT KA; in the data set with BfiI K250A, 2 % of WT KA; with BfiI Q226A it was 50 % of WT KA.
